Key:
[1] = target: Acylpeptide hydrolase from Sulfolobus solfataricus (Sulfolobus solfataricus); test: enzyme inhibition kinetics (Lineweaver-Burk); APEHSs pre-incubated with the peptide 30 min at 80°C, 25 mM Tris-HCl pH 7.5, substrate acetyl-Leu-pNA; competitive inhibition
[2] = target: Acylpeptide hydrolase from Sulfolobus solfataricus (Sulfolobus solfataricus)

Acylpeptide hydrolase from Sulfolobus solfataricus (Sulfolobus solfataricus), sequence (Q7LX61 entry or part of it): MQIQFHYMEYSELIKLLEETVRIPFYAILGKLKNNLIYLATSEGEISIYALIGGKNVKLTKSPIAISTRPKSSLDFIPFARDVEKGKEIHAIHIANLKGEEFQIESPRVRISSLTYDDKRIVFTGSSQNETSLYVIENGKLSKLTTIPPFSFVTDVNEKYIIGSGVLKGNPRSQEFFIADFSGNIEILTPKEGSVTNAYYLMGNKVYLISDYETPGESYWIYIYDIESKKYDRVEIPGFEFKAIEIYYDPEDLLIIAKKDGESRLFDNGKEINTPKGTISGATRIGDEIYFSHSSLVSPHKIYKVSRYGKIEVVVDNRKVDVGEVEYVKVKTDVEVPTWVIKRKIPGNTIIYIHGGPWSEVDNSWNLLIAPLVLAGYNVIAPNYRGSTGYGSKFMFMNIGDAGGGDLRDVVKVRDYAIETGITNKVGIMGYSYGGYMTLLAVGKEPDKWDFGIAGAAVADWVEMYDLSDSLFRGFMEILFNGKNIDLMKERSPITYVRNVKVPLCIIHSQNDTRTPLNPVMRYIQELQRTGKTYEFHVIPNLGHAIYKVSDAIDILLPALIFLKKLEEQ

H-TILLEIKNINAD-NH2 [SsCEI 2]
Ki [1]: 1000 nM | IC50 of inhibition of APEHSs activity (substrate Ac-Leu-pNA) [2]: 9.8 µM

Source: PMC3189933, “Acylpeptide Hydrolase Inhibition as Targeted Strategy to Induce Proteasomal Down-Regulation” (PLoS ONE, 2011)
